The source of these data is patent US20240270846A1 (published 2024).

Where no end group is shown, it is not given here.

Assay [1] has as its target T1, biotin-labeled human CD137 fused to human IgG1 Fc fragment (human CD137-Fc) (human, biotin-labeled).
T1 construct: also called biotin-human CD137-Fc
Put plainly: bead ELISA on biotin-human CD137-Fc, 250 ng IgG; free human IgG1 Fc 62.5 pmol as control competitor. A general note: An ELISA detects its analyte on a solid surface through an enzyme-linked reagent.

Assay [2] concerns the target T1, biotin-labeled human CD137 fused to …. The assay can be described thus: bead ELISA on biotin-human CD137-Fc; decrease of signal with free CD3 epsilon as competitor against free Fc.
Assay [3] shares this target. The assay can be described thus: bead ELISA on biotin-human CD137-Fc, 250 ng IgG; free CD3 epsilon 62.5 pmol as competitor.
Assay [4] concerns the target human CD137 expressed on cells (human, UniProt Q07011 24-255). The assay can be described thus: cell-based or functional assay.
Assay [5] has as its target T2, biotin-labeled human CD137 fused to human IgG1 Fc fragment (human, biotin-labeled).
T2 construct: also called human CD137-Fc; biotin-human CD137-Fc
The assay can be described thus: ECL, IgG with biotinylated antigen.

In assay [6] the target is T3, CD3 epsilon peptide antigen (human, also: biotin-labeled as coated antigen, free as competitor, biotin position not given here).
T3 construct: also called biotin-labeled CD3 epsilon peptide; CD3 peptide
T3 peptide: QDGNEEMGGITQTPY
The assay can be described thus: ECL, IgG with biotinylated antigen.

The next assay concerns the target T4, recombinant human CD3 (human, UniProt P07766 23-126).
T4 construct: also called hCD3
Put plainly: SPR (Biacore T200, 37 degrees C), antibody captured by anti-human Fc, antigen as analyte, 1:1 model.

The target in the next assay is T5, recombinant human CD137 (human, UniProt Q07011 24-186).
T5 construct: also called hCD137
Described as above.

The target in assay [7] is T3, CD3 epsilon peptide antigen. The assay can be described thus: ELISA, IgG supernatant, biotinylated antigen on streptavidin plate.
Assay [8] deals with T6, biotinylated CD3 epsilon epitope peptide (UniProt P07766 22-48, biotinylated).
T6 chain: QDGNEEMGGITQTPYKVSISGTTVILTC
Put plainly: SPR (Biacore); biotinylated CD3 epsilon epitope peptide on chip via streptavidin, antibody as analyte.

B1: dBBDu193/L127 (antibody, V domains shown)
VH: QVQLVESGGGLVQPGRSLRLSCAASGFTFSNAWMHWVRQAPGKGLEWVAQIKDRSNQYATYYAPSVKGRFTISRDDSKNSIYLQMNSLKTEDTAVYYCHYVHYSAASTLLPSFGVDAWGQGTTVTVSS
VL: DIVMTQSPLSLPVTPGEPASISCRASEELLHINRHIFLHWYQQKPGQAPRLLIYKVYNRFTGVPDRFSGSGSGTDFTLKISRVEAEDVGVYYCAQGTSVPFTFGQGTKLEIK
notes: also called dBBDu_193 / dBBDu.L127
In the case of B1, the “ELISA signal with Free Fc 62.5 pmol” value in [1] came out at 6080. Besides, the Signal decrease in [2] is 59.4%. Further, the “ELISA signal with Free CD3e 62.5 pmol” value in [3] was 2470.

B2: dBBDu189/L126 (antibody, V domains shown)
VH: QVQLVESGGGLVQPGRSLRLSCAASGFTFSNAWMHWVRQAPGKGLEWIAQIKDRSNQYATYYAPSVKGRFTISRDDSKNSIYLQMNSLKTEDTAVYYCHYVHYAQASSLLPSFGVDAWGQGTTVTVSS
VL: DIVMTQSPLSLPVTPGEPASISCRTSEELLHINRYIFLHWYQQKPGQAPRLLIYKVQNRFSGVPDRFSGSGSGTDFTLKISRVEAEDVGVYYCAQGSAVPFTFGQGTKLEIK
On to B2, for which the “ELISA signal with Free Fc 62.5 pmol” value in assay [1] worked out at 75100. The same molecule displayed a Signal decrease in assay [2] of 87%. In addition, the “ELISA signal with Free CD3e 62.5 pmol” value in [3] came to 9750.

B3: dBBDu193/L132 (antibody, V domains shown)
VH: QVQLVESGGGLVQPGRSLRLSCAASGFTFSNAWMHWVRQAPGKGLEWVAQIKDRSNQYATYYAPSVKGRFTISRDDSKNSIYLQMNSLKTEDTAVYYCHYVHYSAASTLLPSFGVDAWGQGTTVTVSS
VL: DIVMTQSPLSLPVTPGEPASISCQTSEELVHINRFIFLHWYQQKPGQAPRLLIYKVSNRFSGVPDRFSGSGSGTDFTLKISRVEAEDVGVYYCAQGTSVPFTFGQGTKLEIK
notes: also called dBBDu_193 / dBBDu.L132
Consider B3, for which, in assay [1], the “ELISA signal with Free Fc 62.5 pmol” value amounted to 116000. The molecule further displayed a Signal decrease in assay [2] of 91%. Besides, in [3], the “ELISA signal with Free CD3e 62.5 pmol” value came out at 10400.

B4: GPC3/CD137 × CD3 (other)
VH 1: QVQLQQWGAGLLKPSETLSLTCAVYGGSFSGYYWSWIRQSPEKGLEWIGEINHGGYVTYNPSLESRVTISVDTSKNQFSLKLSSVTAADTAVYYCARDYGPGNYDWYFDLWGRGTLVTVSS
VL 1: EIVLTQSPATLSLSPGERATLSCRASQSVSSYLAWYQQKPGQAPRLLIYDASNRATGIPARFSGSGSGTDFTLTISSLEPEDFAVYYCQQRSNWPPALTFGGGTKVEIK
VH 2: QVQLVESGGGLVQPGRSLRLSCAASGFTFSNAWMHWVRQAPGKGLEWVAQIKDRANSYNTYYAESVKGRFTISRDDSKNSIYLQMNSLKTEDTAVYYCRYVHYTTYAGSSFSYGVDAWGQGTTVTVSS
VL 2: DIVMTQSPLSLPVTPGEPASISCRSSQPLVHSNRNTYLHWYQQKPGQAPRLLIYKVSNRFSGVPDRFSGSGSGTDFTLKISRVEAEDVGVYYCGQGTQVPYTFGQGTKLEIK
VH 3: QVQLVQSGAEVKKPGASVTVSCKASGYTFTDYEMHWIRQPPGEGLEWIGAIDGPTPDTAYSEKFKGRVTLTADKSTSTAYMELSSLTSEDTAVYYCTRFYSYTYWGQGTLVTVSS
VL 3: DIVMTQSPLSLPVTPGEPASISCRSSQPLVHSNRNTYLHWYQQKPGQAPRLLIYKVSNRFSGVPDRFSGSGSGTDFTLKISRVEAEDVGVYYCGQGTQVPYTFGQGTKLEIK
Turning to B4, in [4], the “Luminescence against CD137 positive cells relative to that against GPC3 positive cells, 1 nM” value is about 107% and the “Luminescence against CD137 positive cells relative to that against GPC3 positive cells, 10 nM” value was about 128%.

B5: dBBDu_011 (antibody, V domains shown)
VH: QVQLVESGGGLVQPGRSLRLSCAASGFTFSNAWMHWVRQAPGKGLEWVAQIKDKSSLYNTYYAPSVKGRFTISRDDSKNSIYLQMNSLKTEDTAVYYCRYVHYGASYGFLFAGYGVDAWGQGTTVTVSS
VL: DIVMTQSPLSLPVTPGEPASISCRSSQSLVHSNRNTYLHWYQQKPGQAPRLLIYKVSNRFSGVPDRFSGSGSGTDFTLKISRVEAEDVGVYYCGQGTQVPYTFGQGTKLEIK
notes: Converted to IgG: VH joined to human IgG1 constant domains; also called clone 011
For B5, the binding result in assay [5] and in assay [6] was “binds” each time.

B6: GPC3/CD137xCD3 trispecific antibody (other)
VH 1: QVQLQQWGAGLLKPSETLSLTCAVYGGSFSGYYWSWIRQSPEKGLEWIGEINHGGYVTYNPSLESRVTISVDTSKNQFSLKLSSVTAADTAVYYCARDYGPGNYDWYFDLWGRGTLVTVSS
VL 1: EIVLTQSPATLSLSPGERATLSCRASQSVSSYLAWYQQKPGQAPRLLIYDASNRATGIPARFSGSGSGTDFTLTISSLEPEDFAVYYCQQRSNWPPALTFGGGTKVEIK
VH 2: QVQLVESGGGLVQPGRSLRLSCAASGFTFSNAWMHWVRQAPGKGLEWVAQIKDRANSYNTYYAESVKGRFTISRDDSKNSIYLQMNSLKTEDTAVYYCRYVHYTTYAGSSFSYGVDAWGQGTTVTVSS
VL 2: DIVMTQSPLSLPVTPGEPASISCRSSQPLVHSNRNTYLHWYQQKPGQAPRLLIYKVSNRFSGVPDRFSGSGSGTDFTLKISRVEAEDVGVYYCGQGTQVPYTFGQGTKLEIK
VH 3: QVQLVQSGAEVKKPGASVTVSCKASGYTFTDYEMHWIRQPPGEGLEWIGAIDGPTPDTAYSEKFKGRVTLTADKSTSTAYMELSSLTSEDTAVYYCTRFYSYTYWGQGTLVTVSS
VL 3: DIVMTQSPLSLPVTPGEPASISCRSSQPLVHSNRNTYLHWYQQKPGQAPRLLIYKVSNRFSGVPDRFSGSGSGTDFTLKISRVEAEDVGVYYCGQGTQVPYTFGQGTKLEIK
notes: Made by Fab-arm exchange of mAb A (CrossMab, each arm carrying Fv A1 and Fv A2) with mAb B (conventional IgG); Fc is Fc gamma R silent (L235R, G236R, S239K) and deglycosylated (N297A); also called GPC3/CD137 × CD3; anti-GPC3/CD137×CD3
Turning to B6, in the assay with recombinant human CD3, the Kd (usually the free concentration of one partner at which half of the binding sites on the other are occupied at equilibrium, for simple one-to-one binding) was 0.0197 µM; the koff (in general, a measure of how fast the partners let go of each other) turned out to be 0.00161 s⁻¹; the kon (in general, the rate constant with which the complex forms) came out at 81800 M⁻¹ s⁻¹. Further, in the assay with recombinant human CD137, the Kd worked out at 0.0377 µM, the koff came to 0.0206 s⁻¹ and the kon worked out at 547000 M⁻¹ s⁻¹.

B7: dBBDu_115 (antibody, IgG1, V domains shown)
VH: QVQLVESGGGLVQPGRSLRLSCAASGFTFSNAWMHWVRQAPGKGLEWVAQIKDKANSYNTYYAPSVKGRFTISRDDSKNSIYLQMNSLKTEDTAVYYCRYVHYGSSYGFLFAGYGVDAWGQGTTVTVSS
VL: DIVMTQSPLSLPVTPGEPASISCRSSQSLVHSNRNTYLHWYQQKPGQAPRLLIYKVSNRFSGVPDRFSGSGSGTDFTLKISRVEAEDVGVYYCGQGTQVPYTFGQGTKLEIK
notes: IgG1 format with GLS3000 light chain
For B7, in [7], the binding result is recorded as “binds”.

B8: CE115HA000 (unaltered), one-arm antibody with GLS3000 (antibody, human IgG1, kappa, L234A L235A, N297A)
heavy: QVQLVESGGGVVQPGRSLRLSCAASGFTFSNAWMHWVRQAPGKGLEWVAQIKAKSNNYATYYAESVKGRFTISRDDSKNSLYLQMNSLKTEDTAVYYCRYVHYGAYYGVDAWGQGTTVTVSSASTKGPSVFPLAPSSKSTSGGTAALGCLVKDYFPEPVTVSWNSGALTSGVHTFPAVLQSSGLYSLSSVVTVPSSSLGTQTYICNVNHKPSNTKVDKKVEPKSCDKTHTCPPCPAPEAAGGPSVFLFPPKPKDTLMISRTPEVTCVVVDVSHEDPEVKFNWYVDGVEVHNAKTKPREEQYASTYRVVSVLTVLHQDWLNGKEYKCKVSNKALPAPIEKTISKAKGQPREPQVYTLPPSRCELTKNQVSLSCAVKGFYPSDIAVEWESNGQPENNYKTTPPVLDSDGSFFLVSKLTVDKSRWQQGNVFSCSVMHEALHNHYTQKSLSLSPDYKDDDDK
chain: EPKSSDKTHTCPPCPAPELLGGPSVFLFPPKPKDTLMISRTPEVTCVVVDVSHEDPEVKFNWYVDGVEVHNAKTKPREEQYNSTYRVVSVLTVLHQDWLNGKEYKCKVSNKALPAPIEKTISKAKGQPREPQVCTLPPSRDELTKNQVSLWCLVKGFYPSDIAVEWESNGQPENNYKTTPPVLDSDGSFFLYSKLTVDKSRWQQGNVFSCSVMHEALHNRYTQKSLSLSP
light: DIVMTQSPLSLPVTPGEPASISCRSSQSLVHSNRNTYLHWYQQKPGQAPRLLIYKVSNRFSGVPDRFSGSGSGTDFTLKISRVEAEDVGVYYCGQGTQVPYTFGQGTKLEIKRTVAAPSVFIFPPSDEQLKSGTASVVCLLNNFYPREAKVQWKVDNALQSGNSQESVTEQDSKDSTYSLSSTLTLSKADYEKHKVYACEVTHQGLSSPVTKSFNRGEC
For the molecule B8, binding in assay [8] was put at a Kd of 0.11 µM.
